B1: DN nonspecific 15mer duplex (dsDNA)
DNA 1: AGGCGCATAGTCGCA
DNA 2: TGCGACTATGCGCCT

Key:
[1] = molecular target: T1, hUNG catalytic domain (Homo sapiens, UniProt P13051 94-313); test: stopped-flow 2-AP fluorescence (koff/kon); conditions: 2'-beta-fluoro-2'-deoxyuridine (Ubeta), 2-aminopurine adjacent, paired with T, 20 mM HEPES pH 7.5, 3 mM EDTA, 1 mM DTT, 0.002% Brij 35, 22 mM total Na+, with or without PEG 8K, temperature not stated for binding assays
[2] = molecular target: T1, hUNG catalytic domain; test: fluorescence anisotropy; 20% PEG 8K; 20 mM HEPES pH 7.5, 3 mM EDTA, 1 mM DTT, 0.002% Brij 35, 22 mM total Na+; with or without PEG 8K; temperature not stated for binding assays; conditions: protein: recombinant; label: 5'-fluorescein (FAM); (complement implied by Watson-Crick pairing)
[3] = molecular target: T1, hUNG catalytic domain; test: fluorescence anisotropy; dilute buffer; 20 mM HEPES pH 7.5, 3 mM EDTA, 1 mM DTT, 0.002% Brij 35, 22 mM total Na+; with or without PEG 8K; temperature not stated for binding assays; conditions: protein: recombinant; label: 5'-fluorescein (FAM); (complement implied by Watson-Crick pairing)

T1 sequence (P13051 94-313): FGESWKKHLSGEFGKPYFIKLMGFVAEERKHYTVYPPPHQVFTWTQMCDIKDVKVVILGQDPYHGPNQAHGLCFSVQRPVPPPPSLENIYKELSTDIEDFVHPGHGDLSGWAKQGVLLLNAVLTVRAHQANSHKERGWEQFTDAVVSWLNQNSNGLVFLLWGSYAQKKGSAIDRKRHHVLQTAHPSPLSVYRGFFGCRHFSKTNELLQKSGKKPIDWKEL

Row | Molecule | Kd ([1]; 5% PEG 8K) [nM] | Kd ([1]; 10% PEG 8K) [nM] | Kd ([1]; 15% PEG 8K) [nM] | Kd ([1]; 20% PEG 8K, fast phase koff used) [nM] | Kd ([1]; dilute buffer, text of Methods gives 0.3 nM) [nM] | Kd [2] [nM] | Kd [3] [nM]
1 | DS specific 19mer duplex (2-AP next to Ubeta) | 0.31 | 0.2 | 0.7 | 1.2 | 0.4 | – | –
2 | B1 | – | – | – | – | – | 2300 ± 500 | 1300 ± 500

From PMC4417188, “Molecular crowding enhances facilitated diffusion of two human DNA glycosylases”
